Publication PMC11077948

What was measured:
[1] = biological target: S. mutans CLC^F F-/H+ antiporter encoded by ORF 1289 (Streptococcus mutans UA159); assay: cross-linking; 0.2 mg/mL purified protein in detergent (DM) with 0.125% glutaraldehyde (~500-fold molar excess) at room temperature for the indicated times, quenched with 0.15 M Tris-HCl pH 7.5, SDS-PAGE; monomer and dimer bands
[2] = biological target: S. mutans CLC^F homologue encoded by ORF 1290 (Streptococcus mutans UA159); assay: as above

How did the stoichiometry N [1] turn out when “S. mutans CLC^F F-/H+ antiporter encoded by ORF 1289 (natural protein)” was run?
The stoichiometry N was 2.

With “S. mutans CLC^F homologue encoded by ORF 1290 (natural protein)” as the substance, how does the stoichiometry N [2] read?
The stoichiometry N was 2.
